{"source": "patent US20030087866", "proteins": {"B1": {"name": "human Myc epitope-tagged mouse ribonucleotide reductase R1 protein (protein)", "chain": "EQKLISEEDLMHVIKRDGRQERVMFDKITSRIQKLCYGLNMDFVDPAQITMKVIQGLYSGVTTVELDTLAAETAATLTTKHPDYAILAARIAVSNLHKETKKVFSDVMEDLYNYINPHNGRHSPMVASSTLDIVMANKDRLNSAIIYDRDFSYNYFGFKTLERSYLLKINGKVAERPQHMLMRVSVGIHKEDIDAAIETYNLLSEKWFTHASPTLFNAGTNRPQLSSCFLLSMKDDSIEGIYDTLKQCALISKSAGGIGVAVSCIRATGSYIAGTNGNSNGLVPMLRVYNNTARYVDQGGNKRPGAFAIYLEPWHLDIFEFLDLKKNTGKEEQRARDLFFALWIPDLFMKRVETNQDWSLMCPNECPGLDEVWGEEFEKLYESYEKQGRVRKVVKAQQLWYAIIESQTETGTPYMLYKDSCNRKSNQQNLGTIKCSNLCTEIVEYTSKDEVAVCNLASLALNMYVTPEHTYDFEKLAEVTKVIVRNLNKIIDINYYPIPEAHLSNKRHRPIGIGVQGLADAFILMRYPFESPEAQLLNKQIFETIYYGALEASCELAKEYGPYETYEGSPVSKGILQYDMWNVAPTDLWDWKPLKEKIAKYGIRNSLLIAPMPTASTAQILGNNESIEPYTSNIYTRRVLSGEFQIVNPHLLKDLTERGLWNEEMKNQIIACNGSIQSIPEIPDDLKQLYKTVWEISQKTVLKMAAERGAFIDQSQSLNIHIAEPNYGKLTSMHFYGWKQGLKTGMYYLRTRPAANPIQFTLNKEKLKDKEKALKEEEEKERNTAAMVCSLENREECLMCGS"}}, "molecular_target": "T1, purified recombinant R2 protein, P11157", "T1 chain": "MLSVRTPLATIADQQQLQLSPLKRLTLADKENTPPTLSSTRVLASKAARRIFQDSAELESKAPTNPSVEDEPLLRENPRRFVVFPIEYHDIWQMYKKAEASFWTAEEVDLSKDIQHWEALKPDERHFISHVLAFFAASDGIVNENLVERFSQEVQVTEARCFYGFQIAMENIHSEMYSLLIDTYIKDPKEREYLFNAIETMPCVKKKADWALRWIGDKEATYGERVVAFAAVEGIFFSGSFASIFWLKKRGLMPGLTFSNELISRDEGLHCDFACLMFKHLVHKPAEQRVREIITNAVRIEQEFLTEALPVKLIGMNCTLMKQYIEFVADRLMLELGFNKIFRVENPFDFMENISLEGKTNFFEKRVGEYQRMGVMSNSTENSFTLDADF", "data": [{"protein": "B1", "values": [{"measurement": "ribonucleotide reductase activity of the 9E10-immunoprecipitated R1 combined with purified recombinant R2", "value": "enzyme activity of 15.4±2.0 pmoles/mg/hr was detected when C1/mR1 cells (Table 1) were used as a source of recombinant R1"}]}]}
